Consider two molecules from publication PMC7392006, “Demethylase-independent function of JMJD2D as a novel antagonist of p53 to promote Liver Cancer initiation and progression”.

This series has as its target p53 (recombinant, Active Motif 81091) (Homo sapiens, UniProt P04637 1-393). Nature of the series: EMSA; no JMJD2D; 5 mM Hepes pH 7.6, 100 mM KCl, 5 mM MgCl2, 1.25 mM DTT, 0.05% NP-40, 2.25% glycerol, 1 ug poly(dI.dC); 6% polyacrylamide gel; temperature not stated. As to conditions: protein: commercial; chain copies: 4; label: biotin end label; blunt.

Sequence of p53 (recombinant, Active Motif 81091) (P04637 whole entry): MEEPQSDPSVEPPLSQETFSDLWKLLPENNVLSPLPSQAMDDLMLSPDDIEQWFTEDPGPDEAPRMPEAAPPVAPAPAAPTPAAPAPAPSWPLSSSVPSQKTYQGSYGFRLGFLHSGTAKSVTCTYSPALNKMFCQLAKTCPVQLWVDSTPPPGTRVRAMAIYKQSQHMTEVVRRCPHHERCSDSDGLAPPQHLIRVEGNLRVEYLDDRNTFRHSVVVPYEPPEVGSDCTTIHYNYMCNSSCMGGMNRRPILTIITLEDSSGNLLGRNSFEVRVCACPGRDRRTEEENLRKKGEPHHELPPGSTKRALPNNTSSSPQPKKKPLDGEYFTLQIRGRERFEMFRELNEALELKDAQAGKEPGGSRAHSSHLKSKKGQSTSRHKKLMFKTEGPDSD

B1: PUMA promoter p53 element (dsDNA)
DNA 1: GCGCGCCTGCAAGTCCTGACTTGTCCGCGGCG
DNA 2: CGCCGCGGACAAGTCAGGACTTGCAGGCGCGC
B1: the binding result is “binds”.

B2: p21 promoter p53 element (dsDNA)
DNA 1: CTGGCCGTCAGGAACATGTCCCAACATGTTGAGCTCT
DNA 2: AGAGCTCAACATGTTGGGACATGTTCCTGACGGCCAG
B2: the binding result is reported as “binds”.
